Target: T1, human neonatal Fc receptor (FcRn), FcRn beta-2-microglobulin complex (human, UniProt P55899 24-297; P61769 21-119)
T1 construct: also called human FcRn
Assay: SPR-based binding assay, relative to the reference antibody

T1 sequence (P55899 24-297 limits assumed, chain 1 of 2): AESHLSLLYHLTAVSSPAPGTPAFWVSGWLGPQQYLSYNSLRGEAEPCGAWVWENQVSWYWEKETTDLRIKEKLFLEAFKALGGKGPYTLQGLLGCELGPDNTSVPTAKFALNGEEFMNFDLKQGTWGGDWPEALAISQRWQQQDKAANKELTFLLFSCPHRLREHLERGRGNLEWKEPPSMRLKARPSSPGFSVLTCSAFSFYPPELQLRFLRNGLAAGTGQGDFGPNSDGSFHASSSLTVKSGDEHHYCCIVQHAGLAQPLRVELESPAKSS
T1 sequence (P61769 21-119 limits assumed, chain 2 of 2): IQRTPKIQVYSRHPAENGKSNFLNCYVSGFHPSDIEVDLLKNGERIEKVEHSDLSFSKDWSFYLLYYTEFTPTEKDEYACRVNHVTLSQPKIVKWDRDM

B1: anti-digoxygenin antibody variant 7 (LC-G57R and LC-S60K) (antibody, human IgG1, kappa, name in Kabat numbering)
heavy: not shown
light: DIQMTQSPSSLSASVGDRVTITCRASQDIKNYLNWYQQKPGKAPKLLIYYSSTLLSRVPKRFSGSGSGTDFTLTISSLQPEDFATYYCQQSITLPPTFGGGTKVEIKRRTVAAPSVFIFPPSDEQLKSGTASVVCLLNNFYPREAKVQWKVDNALQSGNSQESVTEQDSKDSTYSLSSTLTLSKADYEKHKVYACEVTHQGLSSPVTKSFNRGEC
notes: Variant of m1
relative SPR binding: 161%

Reference: US20210041163A1 (Hoffmann-La Roche, published 2021)
